From patent US20200216532A1 (Ablynx, published 2020)

Tests used:
Experiment in all cases: SPR, interference factor immobilized
[1] = target: T1, purified interference factor(s), Donor A
T1 construct: also called interference in serum from Donor A

[2] = target: T2, purified interference factor(s), Donor B
T2 construct: also called interference in serum from Donor B

[3] = target: T3, purified interference factor(s), Donor C
T3 construct: also called interference in serum from Donor C

| Binder | % of binding of reference (=100%) [1] | % of binding of reference (=100%) [2] | % of binding of reference (=100%) [3] |
| --- | --- | --- | --- |
| SEQ ID NO: 48 (VHH, Ex. 8) VHH: EVQLVESGGGLVQPGGSLRLSCIASGLPFSTKSMGWFRQAPGKEREFVARISPGGTSRYYGDFVKGRFAISRDNAKNTTWLQMNSLKAEDTAVYYCASGERSTYIGSNYYRTNEYDYWGTGTQVTVSS | 0% | – | – |
| SEQ ID NO: 49 (VHH, Ex. 8; V5L, I23A, E44G, A49S, A68T, A74S, T78L, W79Y, K83R, T110Q, Q108L) VHH: EVQLLESGGGLVQPGGSLRLSCAASGLPFSTKSMGWFRQAPGKGREFVSRISPGGTSRYYGDFVKGRFTISRDNSKNTLYLQMNSLRAEDTAVYYCASGERSTYIGSNYYRTNEYDYWGQGTLVTVSS | 0% | – | – |
| SEQ ID NO: 42 (VHH, Ex. 8) EVQLVESGGGLVQPGGSLRLSCAASGRTFSYNPMGWFRQAPGKGRELVAAISRTGGSTYYPDSVEGRFTISRDNAKRMVYLQMNSLRAEDTAVYYCAAAGVRAEDGRVRTLPSEYTFWGQGTQVTVSSAAAEVQLVESGGGLVQPGGSLRLSCAASGRTFSYNPMGWFRQAPGKGRELVAAISRTGGSTYYPDSVEGRFTISRDNAKRMVYLQMNSLRAEDTAVYYCAAAGVRAEDGRVRTLPSEYTFWGQGTQVTVSSA | 1% | 4% | – |
| SEQ ID NO: 47 (VHH, Ex. 8) VHH: EVQLVESGGGLVQPGGSLRLSCAASGSVFKINVMAWYRQAPGKGRELVAGIISGGSTSYADSVKGRFTISRDNAKNTLYLQMNSLRPEDTAVYYCAFITTESDYDLGRRYWGQGTLVTVSS | 1% | – | – |
| SEQ ID NO: 43 (VHH, Ex. 8) DVQLVESGGGLVQPGGSLRLSCAASGFILDYYAIGWFRQAPGKEREGVLCIDASDDITYYADSVKGRFTISRDNSKNTVYLQMNSLRPEDTAVYYCATPIGLSSSCLLEYDYDYWGQGTLVTVSSGGGGSGGGSEVQLLESGGGLVQPGGSLRLSCAASGFTFRSFGMSWVRQAPGKGPEWVSSISGSGSDTLYADSVKGRFTISRDNSKNTLYLQMNSLRPEDTAVYYCTIGGSLSRSSQGTLVTVSSA | 3% | 20% | – |
| SEQ ID NO: 45 (VHH, Ex. 8; no addition) VHH: EVQLVESGGGLVQAGGSLRLSCAASRSIGRLDRMGWYRHRTGEPRELVATITGGSSINYGDFVKGRFTISIDNAKNTVYLQMNNLKPEDTAVYYCNFNKYVTSRDTWGQGTQVTVSS | 0% | – | – |
| SEQ ID NO: 74 (VHH, Ex. 8) VHH: EVQLVESGGGLVQPGGSLRLSCAASRSIGRLDRMGWYRHRPGEPRELVATITGGSSINYGDSVKGRFTISIDNSKNTVYLQMNSLRPEDTAVYYCNFNKYVTSRDTWGQGTLVTVSS | 4% | 41% | 33% |
| SEQ ID NO: 71 (VHH, Ex. 8) VHH: EVQLVESGGGLVQPGGSLRLSCAASRSIGRLDRMGWYRHRPGEPRELVATITGGSSINYGDSVKGRFTISIDNSKNTVYLQMNSLRPEDTAVYYCNFNKYVTSRDTWGQGTLVTVSG | 88% | 105% | 87% |
| SEQ ID NO: 67 (VHH, Ex. 8) VHH: EVQLVESGGGLVQPGGSLRLSCAASRSIGRLDRMGWYRHRPGEPRELVATITGGSSINYGDSVKGRFTISIDNSKNTVYLQMNSLKPEDTAVYYCNFNKYVTSRDTWGQGTLVTVSS | 102% | 117% | 96% |
| SEQ ID NO: 87 (VHH, Ex. 8) VHH: EVQLVESGGGSVQPGGSLRLSCAASRSIGRLDRMGWYRHRPGEPRELVATITGGSSINYGDSVKGRFTISIDNSKNTVYLQMNSLRPEDTAVYYCNFNKYVTSRDTWGQGTLVTVGG | 51% | 5% | 39% |
| SEQ ID NO: 84 (VHH, Ex. 8) VHH: EVQLVESGGGLVQPGGSLRLSCAASRSIGRLDRMGWYRHRPGEPRELVATITGGSSINYGDSVKGRFTISIDNSKNTVYLQMNSLRPEDTAVYYCNFNKYVTSRDTWGQGTLVTVGS | 84% | 50% | 83% |
| SEQ ID NO: 70 (VHH, Ex. 8) VHH: EVQLVESGGGLVQPGGSLRLSCAASRSIGRLDRMGWYRHRPGEPRELVATITGGSSINYGDSVKGRFTISIDNSKNTVYLQMNSLRPEDTAVYYCNFNKYVTSRDTWGQGTLVQVSS | 90% | 105% | 98% |
| SEQ ID NO: 82 (VHH, Ex. 8) VHH: EVQLVESGGGLVQPGGSLRLSCAASRSIGRLDRMGWYRHRPGEPRELVATITGGSSINYGDSVKGRFTISIDNSKNTVYLQMNSLRAEDTAVYYCNFNKYVTSRDTWGQGTLVTVSS | 96% | 80% | 100% |
| SEQ ID NO: 86 (VHH, Ex. 8) VHH: EVQLVESGGGSVQPGGSLRLSCAASRSIGRLDRMGWYRHRPGEPRELVATITGGSSINYGDSVKGRFTISIDNSKNTVYLQMNSLRPEDTAVYYCNFNKYVTSRDTWGQGTLVQVSS | 76% | 6% | 86% |
| SEQ ID NO: 66 (VHH, Ex. 8) VHH: EVQLVESGGGSVQPGGSLRLSCAASRSIGRLDRMGWYRHRPGEPRELVATITGGSSINYGDSVKGRFTISIDNSKNTVYLQMNSLRPEDTAVYYCNFNKYVTSRDTWGQGTLVTVSS | 81% | 29% | 84% |
| SEQ ID NO: 65 (VHH, Ex. 8) VHH: EVQLVESGGGLVQAGGSLRLSCAASRSIGRLDRMGWYRHRPGEPRELVATITGGSSINYGDSVKGRFTISIDNSKNTVYLQMNSLRPEDTAVYYCNFNKYVTSRDTWGQGTLVTVSS | 73% | 121% | 64% |
| SEQ ID NO: 83 (VHH, Ex. 8) VHH: EVQLVESGGGLVQPGGSLRLSCAASRSIGRLDRMGWYRHRPGEPRELVATITGGSSINYGDSVKGRFTISIDNSKNTVYLQMNSLRPEDAAVYYCNFNKYVTSRDTWGQGTLVTVSS | 56% | 73% | 61% |
| SEQ ID NO: 85 (VHH, Ex. 8) VHH: EVQLVESGGGSVQPGGSLRLSCAASRSIGRLDRMGWYRHRPGEPRELVATITGGSSINYGDSVKGRFTISIDNSKNTVYLQMNSLRPEDTAVYYCNFNKYVTSRDTWGQGTLVQVGG | 46% | 5% | 42% |
| SEQ ID NO: 80 (VHH, Ex. 8) VHH: EVQLVESGGGLVQPGGSLRLSCAASRSIGRLDRMGWYRHRPGEPRELVATITGGSSINYGDSVKGRFTISIDNSKNTVYLQMNSLRPEDTAVYYCNFNKYVTSRDTWGQGTLVQVGG | 65% | 5% | 58% |
| SEQ ID NO: 78 (VHH, Ex. 8) VHH: EVQLVESGGGLVRPGGSLRLSCAASRSIGRLDRMGWYRHRPGEPRELVATITGGSSINYGDSVKGRFTISIDNSKNTVYLQMNSLRPEDTAVYYCNFNKYVTSRDTWGQGTLVTVSS | 96% | 96% | 100% |
| SEQ ID NO: 69 (VHH, Ex. 8) VHH: EVQLVESGGGLVQPGGSLRLSCAASRSIGRLDRMGWYRHRPGEPRELVATITGGSSINYGDSVKGRFTISIDNSKNTVYLQMNSLRPEDTAVYYCNFNKYVTSRDTWGQGTQVTVSS | 80% | 120% | 84% |
| SEQ ID NO: 81 (VHH, Ex. 8) VHH: EVQLVESGGGVVQPGGSLRLSCAASRSIGRLDRMGWYRHRPGEPRELVATITGGSSINYGDSVKGRFTISIDNSKNTVYLQMNSLRPEDTAVYYCNFNKYVTSRDTWGQGTLVTVSS | 94% | 50% | 89% |
| SEQ ID NO: 68 (VHH, Ex. 8) VHH: EVQLVESGGGLVQAGGSLRLSCAASRSIGRLDRMGWYRHRPGEPRELVATITGGSSINYGDSVKGRFTISIDNSKNTVYLQMNSLRPEDTAVYYCNFNKYVTSRDTWGQGTQVTVSS | 38% | 115% | 49% |
| SEQ ID NO: 89 (VHH, Ex. 8) VHH: EVQLVESGGGSVQAGGSLRLSCAASRSIGRLDRMGWYRHRPGEPRELVATITGGSSINYGDSVKGRFTISIDNSKNTVYLQMNSLRPEDTAVYYCNFNKYVTSRDTWGQGTLVQVGG | 14% | 5% | 17% |
| SEQ ID NO: 72 (VHH, Ex. 8) VHH: EVQLVESGGGLVQPGGSLRLSCAASRSIGRLDRMGWYRHRPGEPRELVATITGGSSINYGDSVKGRFTISIDNSKNTVYLQMNSLRPEDTAVYYCNFNKYVTSRDTWGQGTLVTVGG | 70% | 47% | 56% |
| SEQ ID NO: 38 (VHH, Ex. 8) EVQLVESGGGLVQPGGSLRLSCAASGFTFSSYAMSWVRQAPGKGLEWVSGIKSSGDSTRYAGSVKGRFTISRDNAKNTLYLQMNSLRPEDTAVYYCAKSRVSRTGLYTYDNRGQGTLVTVSSGGGGSGGGGSGGGGSGGGGSEVQLVESGGGLVQPGGSLRLSCAASGRTFNNYAMGWFRQAPGKEREFVAAITRSGVRSGVSAIYGDSVKDRFTISRDNAKNTLYLQMNSLRPEDTAVYYCAASAIGSGALRRFEYDYSGQGTLVTVSSA | 9% | 25% | 7% |
